Laboratory results as given in the supplement of paper PMC7125110.
± gives the standard error. This sample holds only a part of the variants without activity.

B1: glmS ribozyme (parent)
chain: AUAAAAGCGCCAGAACUACAGAAAUGUAGUUGACGAGGAGGAGGUUUAUCGAAUUUUCGGCGGAUGCCUCCAAA

Assays:
Conditions in all cases: with glucosamine-6-phosphate
glucosamine-6-phosphate [1] = variants of: B1; assay: self-cleavage kobs at 40 uM GlcN6P; higher = faster cleavage; RNA array
In short: (§1)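 Barcoded glmS ribozyme variants on sequenced MiSeq chips were transcribed in situ by E. coli RNA polymerase and tracked through a hybridised Cy3 probe at 37 °C. Glucosamine-6-phosphate (40 μM to 10 mM) in HEPES/KCl/Mg(OAc)2 buffer was flowed in, and tiles were imaged over ~14 h. Signals were normalised to baseline and to non-cleaving reference variants; per-tile medians were fit to one- or two-exponential decays to give kobs. kcat and KM came from weighted Michaelis–Menten fits across concentrations.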

glucosamine-6-phosphate [2] = variants of: B1; assay: self-cleavage kobs at 160 uM GlcN6P; higher = faster cleavage; RNA array
In short: as §1

glucosamine-6-phosphate [3] = variants of: B1; assay: self-cleavage kobs at 640 uM GlcN6P; higher = faster cleavage; RNA array
In short: as §1

glucosamine-6-phosphate [4] = variants of: B1; assay: self-cleavage kobs at 2500 uM GlcN6P; higher = faster cleavage; RNA array
In short: as §1

glucosamine-6-phosphate [5] = variants of: B1; assay: self-cleavage kobs at 10000 uM GlcN6P; higher = faster cleavage; RNA array
In short: as §1

Row | Variant | self-cleavage kobs at 40 uM GlcN6P (glucosamine-6-phosphate [1]) | self-cleavage kobs at 160 uM GlcN6P (glucosamine-6-phosphate [2]) | self-cleavage kobs at 640 uM GlcN6P (glucosamine-6-phosphate [3]) | self-cleavage kobs at 2500 uM GlcN6P (glucosamine-6-phosphate [4]) | self-cleavage kobs at 10000 uM GlcN6P (glucosamine-6-phosphate [5])
1 | A12U C16G | 0.000539 ± 9e-05 s⁻¹ | 0.000549 ± 0.00013 s⁻¹ | 0.00491 ± 0.0008 s⁻¹ | 0.00786 ± 0.0024 s⁻¹ | 0.0117 ± 0.0031 s⁻¹
2 | U55G U56A | 0.000287 ± 6.6e-05 s⁻¹ |  | 0.00208 ± 0.00047 s⁻¹ | 0.00834 ± 0.0016 s⁻¹ | 0.0131 ± 0.0051 s⁻¹
3 | A14U C61A | < 1e-05 s⁻¹ |  |  |  | < 1e-05 s⁻¹
4 | G37U U54G A64U | < 1e-05 s⁻¹ |  |  |  | < 1e-05 s⁻¹
5 | G7C C10A A52C | < 1e-05 s⁻¹ |  |  |  | < 1e-05 s⁻¹
6 | C11A G41C | < 1e-05 s⁻¹ | < 1e-05 s⁻¹ | < 1e-05 s⁻¹ | < 1e-05 s⁻¹ | 
7 | C16A G62C | < 1e-05 s⁻¹ | < 1e-05 s⁻¹ | < 1e-05 s⁻¹ | < 1e-05 s⁻¹ | < 1e-05 s⁻¹
8 | G7A C50G C68A | 9.01e-05 ± 1.9e-05 s⁻¹ |  |  |  | 0.000134 ± 2.4e-05 s⁻¹
9 | G9U G44C A64C | < 1e-05 s⁻¹ |  |  |  | < 1e-05 s⁻¹
10 | G29U A39U | 0.000106 ± 1e-05 s⁻¹ | 0.000145 ± 2.1e-05 s⁻¹ | 0.000784 ± 0.00013 s⁻¹ | 0.00196 ± 0.00026 s⁻¹ | 0.0042 ± 0.00041 s⁻¹
11 | C11G U31A A33U A36C | < 1e-05 s⁻¹ |  |  | < 1e-05 s⁻¹ | < 1e-05 s⁻¹
12 | U55A U69C | 0.000718 ± 0.00017 s⁻¹ | 0.000108 ± 3.1e-05 s⁻¹ | 0.000329 ± 0.0001 s⁻¹ | 7.69e-05 ± 3e-05 s⁻¹ | 0.00148 ± 0.0004 s⁻¹
13 | G35C A64G C67U | < 1e-05 s⁻¹ |  |  |  | < 1e-05 s⁻¹
14 | C10G U47C U54C | < 1e-05 s⁻¹ |  |  | < 1e-05 s⁻¹ | 
15 | U31G A33G | < 1e-05 s⁻¹ |  | < 1e-05 s⁻¹ |  | < 1e-05 s⁻¹
16 | C50G C68G | 0.00159 ± 0.00078 s⁻¹ |  | 0.000121 ± 1.1e-05 s⁻¹ | 0.000142 ± 1.2e-05 s⁻¹ | 6.8e-05 ± 4.8e-06 s⁻¹
17 | C8A A53U | < 1e-05 s⁻¹ | < 1e-05 s⁻¹ | < 1e-05 s⁻¹ | < 1e-05 s⁻¹ | < 1e-05 s⁻¹
18 | G32U C50G C61A | 0.000162 ± 2.5e-05 s⁻¹ |  |  |  | 0.000319 ± 4.2e-05 s⁻¹
19 | C10G G29U U31C A36U C68A C71U | < 1e-05 s⁻¹ |  |  |  | 
20 | C10G G44A | < 1e-05 s⁻¹ | < 1e-05 s⁻¹ | < 1e-05 s⁻¹ |  | < 1e-05 s⁻¹
21 | A6G U31G C34G | < 1e-05 s⁻¹ |  | < 1e-05 s⁻¹ |  | < 1e-05 s⁻¹

Row | Variant | self-cleavage kobs at 40 uM GlcN6P (glucosamine-6-phosphate [1]) | self-cleavage kobs at 160 uM GlcN6P (glucosamine-6-phosphate [2]) | self-cleavage kobs at 640 uM GlcN6P (glucosamine-6-phosphate [3]) | self-cleavage kobs at 2500 uM GlcN6P (glucosamine-6-phosphate [4]) | self-cleavage kobs at 10000 uM GlcN6P (glucosamine-6-phosphate [5])
22 | U30C C61A | < 1e-05 s⁻¹ |  |  |  | < 1e-05 s⁻¹
23 | A12C G59U C68G | < 1e-05 s⁻¹ |  |  |  | 
24 | A6U G40U U56A | < 1e-05 s⁻¹ |  | < 1e-05 s⁻¹ |  | 
25 | G38U G41A U69G | < 1e-05 s⁻¹ | < 1e-05 s⁻¹ | < 1e-05 s⁻¹ | < 1e-05 s⁻¹ | 
26 | G7U U69G | 0.000114 ± 2.1e-05 s⁻¹ |  | 0.000299 ± 7e-05 s⁻¹ | 6.87e-05 ± 1.8e-05 s⁻¹ | 0.000226 ± 8.9e-05 s⁻¹
27 | G44A U56C C61U | < 1e-05 s⁻¹ |  | < 1e-05 s⁻¹ | < 1e-05 s⁻¹ | < 1e-05 s⁻¹
28 | A6C A36U | < 1e-05 s⁻¹ |  |  | < 1e-05 s⁻¹ | < 1e-05 s⁻¹
29 | C10A A14C | < 1e-05 s⁻¹ |  | < 1e-05 s⁻¹ | < 1e-05 s⁻¹ | 
30 | G35C C50U | < 1e-05 s⁻¹ | < 1e-05 s⁻¹ | < 1e-05 s⁻¹ | < 1e-05 s⁻¹ | < 1e-05 s⁻¹
31 | A39C U54C A64C | < 1e-05 s⁻¹ |  |  |  | 
32 | A36C C58G U69G | 7.56e-05 ± 2.1e-05 s⁻¹ |  |  |  | 5.12e-05 ± 1.9e-05 s⁻¹
33 | A42U G59U | < 1e-05 s⁻¹ | < 1e-05 s⁻¹ | < 1e-05 s⁻¹ |  | < 1e-05 s⁻¹
34 | G43A C58G | < 1e-05 s⁻¹ | < 1e-05 s⁻¹ | < 1e-05 s⁻¹ | < 1e-05 s⁻¹ | < 1e-05 s⁻¹
35 | A14G U69C | 0.00132 ± 0.00036 s⁻¹ |  |  |  | 0.00782 ± 0.0029 s⁻¹
36 | A6C A12G U69G | < 1e-05 s⁻¹ | < 1e-05 s⁻¹ |  |  | < 1e-05 s⁻¹
37 | A6G G38C | < 1e-05 s⁻¹ | < 1e-05 s⁻¹ | < 1e-05 s⁻¹ | < 1e-05 s⁻¹ | < 1e-05 s⁻¹
38 | A14G G29A | 0.000403 ± 6.2e-05 s⁻¹ |  | 0.00394 ± 0.00079 s⁻¹ | 0.00353 ± 0.00081 s⁻¹ | 0.0317 ± 0.0076 s⁻¹
39 | G32C C67A | < 1e-05 s⁻¹ |  |  |  | 2.83e-05 ± 9.7e-06 s⁻¹
40 | A12C C34G G40U A52U C61U | < 1e-05 s⁻¹ |  |  |  | < 1e-05 s⁻¹
41 | C10A C11U A36U C70U C71G | 0.000371 ± 9.5e-05 s⁻¹ |  | 0.000527 ± 0.00015 s⁻¹ |  | 0.000335 ± 6.3e-05 s⁻¹
